Data on three molecules can be found in patent publication US20250355001A1, “METHOD FOR DETECTING A TAU PROTEIN FRAGMENT IN A SAMPLE” (GTINVENT LIMITED, priority 2022, published 2025).

Assay [1] has as its system hT40, dGA, dGAE and truncated tau fragments. As to the kind of experiment: Binding ELISA / epitope mapping of anti-tau scAbs with truncated tau proteins and 13mer peptides. The arrangement: species or system human. The conditions noted are these: for Tau proteins/fragments with positive scAb reactivity: binding ELISA; for binding region on hT40: amino acid residues of hT40; for Binding region hT40: second Table 26, own antibodies. Summed up: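 Serially double-diluted scAbs were applied to 2% MPBS-blocked wells carrying either 1 μg/ml full-length or truncated tau, or biotinylated 13mer peptides (1 μg/ml) captured on 5 μg/ml streptavidin. Absorbance after HRP anti-human C kappa secondary gave the binding signal.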
Background: An ELISA detects its analyte on a solid surface through an enzyme-linked reagent.

The target in assay [2] is T1, hT40 (T441, SEQ ID NO: 1) (Homo sapiens, UniProt P10636).
T1 construct: Full length tau (hT40)
T1 sequence (P10636 1-441 isoform P10636-8): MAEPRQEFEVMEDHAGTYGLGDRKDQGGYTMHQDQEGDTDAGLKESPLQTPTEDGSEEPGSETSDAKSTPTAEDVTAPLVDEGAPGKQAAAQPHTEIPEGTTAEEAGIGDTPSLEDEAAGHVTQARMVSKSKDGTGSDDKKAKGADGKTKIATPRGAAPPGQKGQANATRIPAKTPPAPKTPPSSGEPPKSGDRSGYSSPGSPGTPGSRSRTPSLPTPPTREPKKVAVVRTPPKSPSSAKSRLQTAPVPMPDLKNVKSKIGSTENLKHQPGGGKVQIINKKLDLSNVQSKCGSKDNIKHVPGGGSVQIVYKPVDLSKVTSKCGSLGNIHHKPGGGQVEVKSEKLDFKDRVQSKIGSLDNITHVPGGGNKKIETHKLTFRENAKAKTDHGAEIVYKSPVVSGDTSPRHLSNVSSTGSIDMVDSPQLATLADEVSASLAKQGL
Description: Biacore X100 SPR kinetics of scAbs for hT40. In kind it is binding. The settings on record: Table 23; scAb captured, T441 (hT40) analyte; 1:1 model. The method, boiled down:
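Captured scAb on anti-HuCk CM5 surface (flow cell 1 as reference) in HBS-EP+, capture set for theoretical RMax 100 RU; hT40 injected multi-cycle (0.15625–100 nM) or single-cycle (6.25–100 nM), 120 s association, 420 s dissociation, glycine pH 2.0 regeneration. Kinetics and affinity from 1:1 binding model fit.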

The target of another assay is dGA (SEQ ID NO: 5) (Homo sapiens, UniProt P10636). As to the kind of experiment: Biacore X100 SPR kinetics of scAbs for dGA. The settings on record: Table 24, scAb, dGA analyte; for Kd: dissociation rate. The assay is classed as binding. The method, then:
Surface plasmon resonance (SPR) is widely regarded as the gold standard for real time measurement of protein-protein interactions such as antibody binding. All SPR experiments were carried out using a Biacore X100 machine and HBS EP+ running buffer (GE Healthcare). A ‘capture’ method was followed for affinity measurements, where an anti-human constant kappa chain (HuCk) antibody was conjugated to the surface of a CM5 sensor chip using an amine coupling kit and scAb molecules were immobilised via their HuCk domain. Amine coupling is a very common approach for immobilising the ligand to the chip surface. The chip surface has a dextran matrix derivatised with carboxyl groups, which after activation with N-hydroxysuccinimide (NHS) and 1-ethyl-3-(3-dimethylaminopropyl) carbodiimide (EDC), form reactive succinimide esters which allows the covalent capturing of the ligand via any available primary amine groups (e.g. Lysine) on the ligand (in this case anti-HuCk antibody). The capture antibody was diluted 1/100 in 10 mM Sodium acetate buffer pH 5.0 and passed over the activated chip surface for a period of at least 420 s. Final ligand immobilisation levels over 12,000 RU were deemed to be satisfactory.
Following immobilisation, the level of each scAb to be captured was identified using the standard SPR equation with a theoretical RMax of 100 RU. Analyte MW refers to the molecular weight of hT40 or dGA/dGAE molecules, while ligand MW refers to the molecular weight of the scAbs tested. RL is the desired capture level and S refers to the stoichiometric ratio:
The scAb to be tested was added only to flow cell 2 so that flow cell 1 could act as a control to subtract any interaction with the analyte and the chip surface. Both single and multi-cycle runs were utilised using wizards developed in the Biacore X100 control software which are both accepted methods of kinetic analysis (Karlsson, R., et al. Analyzing a kinetic titration series using affinity biosensors (2006) Analytical Biochemistry 349:136-47). The multi-cycle protocol was as follows-Three start-up cycles composed of an initial capture, to the desired level, of the scAb to be tested was performed followed by a 30 s injection of glycine buffer pH 2.0 after each cycle to regenerate the chip surface. The regeneration step removed any captured scAb whilst leaving the capture antibody intact and able to repeat the capture for the next cycle. Following three start-up cycles increasing concentrations (0.15625 nM-100 nM) of the target to be tested were added to the chip surface after the desired scAb capture. The target was added for a 120 s association period and 420 s dissociation period followed by another regeneration, 30 s injection of glycine buffer pH 2.0 in between each cycle.
The single cycle kinetics protocol was similar and utilised the same level of scAb capture. Three start-up cycles were used followed by 5 increasing concentrations of the analyte (6.25 nM-100 nM) for an association period of 120 s followed by a dissociation period of 420 s for each concentration. In single cycle kinetics the regeneration step was performed only after the final analyte concentration was added. Binding responses were analysed in Biacore X100 evaluation software and data fitted to a 1:1 binding model to obtain kinetic and affinity characterisation.
(Surface plasmon resonance follows binding to a sensor surface in real time, without labels.)

Setting [3] is: Table 15, residue numbers of hT40.
Where [4] appears, read: Table 26 summary, top scAbs, residues of hT40.
The mark [5] stands for this setting: residue numbers of SEQ ID NO: 1 (hT40), CDR Tables 1-11.
Where [6] appears, read: Table 16, NS, S and M clones, incl. 13mer peptides.

Chain of dGA (SEQ ID NO: 5) (P10636 614-707): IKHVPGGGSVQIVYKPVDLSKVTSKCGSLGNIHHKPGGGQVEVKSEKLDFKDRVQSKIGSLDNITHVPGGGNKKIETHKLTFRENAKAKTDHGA

B1: CE2: anti-tau core clone, Table 10; SEQ ID NO: 366 (protein)
scFv: QVQLQESGPSLVKPSQTLSLTCTVSGFSLTNYPVGWVRQAPGKALEWIGNIENDGSANYASALKSRLSITRDTSKNQVSLSLSSATTEDTAVYYCGREFGGSDGYTYFVDIDYWGPGLLVTVSSEGKSSGASGESKVDDQAVLTQPSSVSKSLGQSVSITCSGSSSNVGYGNYVSWFQQVPGSAPKILIYGATSRASGVPDRFSGSRSGNTATLTITSLQAEDEADYYCASYDGSSSGVFGSGTRLTVLG
modifications: CE2/E1B8 amino acid sequence
With B1, the “cross-reactivity using hT40, dGA and dGAE antigens” value in assay [1] (ELISA, 'E' group scAbs) is “cross-reacts with dGA”. Also, the “Tau proteins/fragments with positive scAb reactivity” value (shortened to “Tau proteins/fragments”) was 297-390 (dGA), 297-391 (dGAE), 313-336 in assay [1] (setting [3]) and “hT40, 266-359 (R1-3)” in assay [1] (Table 17, 'C' group scAbs). The “Shortest region bound on hT40” value in assay [1] (setting [3]) is 313-336; in assay [1] (Table 17, 'C' group scAbs, incl. 13mer peptides), 319-331. Moreover, the Epitope in assay [1] (setting [4]) is given as 319-331; in assay [1] (Table 26 summary, top scAbs, residues of hT40, listed as E1B8), 316-336; in assay [1] (setting [5]), 319-331. Moreover, in assay [1] (listed as E1B8 scAb), the “binding region on hT40” value is 313-336. The hT40 binding region in assay [1] (second Table 25, mAb format) is recorded as 319-331. Also, the “ka” value worked out at 213700 M⁻¹ s⁻¹ in assay [2] and 137000 M⁻¹ s⁻¹ in the assay with dGA (SEQ ID NO: 5). Also, the “kd” value in assay [2] was 0.001077 s⁻¹. Also, in the assay with dGA (SEQ ID NO: 5), the “Kd” value is 0.00242 s⁻¹.

B2: S1G2: sheep-derived anti-tau core clone; scFv SEQ ID NO: 81, VH 455, VL 456 (protein)
scFv: QVQLQESGPSLVKPSQTLSLTCTVSGFSLTSNSVGWVRQAPGKAPEWVAGIDTDGEEGYNPALNSRLSITRDTSKSQVSLSLSSVTSEDTAVYYCGRSYRADGLAYGYVQAIDYWGPGLLVTVSSEGKSSGASGESKVDDQAVVTQPSSVSGSLGQRVSITCSGSFIGISSVGWFQQLPGSGLRTIIVASDGRPSGVPDRFSMSKSGNTATLTISSLQAEDEADYFCGSSDRTPYTGVFGSGTRLTVLG
modifications: S1G2 amino acid sequence
Turning to B2, the “Tau proteins/fragments” value in assay [1] (Table 16, NS, S and M clones) is “hT40, 297-390 (dGA), 297-391 (dGAE), 369-390, 369-391”. Further, in assay [1] (setting [6]), the “Shortest region bound on hT40” value was 367-379. In addition, the Epitope in assay [1] (setting [4]) is 367-379. For the same molecule, the “Detection scAb (Epitope)” value in assay [1] (Table 28 (LoD table), residues of hT40) is reported as “S1G2 (367-379)”. In assay [1], the “binding region on hT40” value was 367-379 and the “Binding region hT40” value is on record as “(Binding region hT40 367-379)”. Besides, in assay [2], the “ka” value was determined as 1.057e+06 M⁻¹ s⁻¹ and the “kd” value amounted to 0.00018 s⁻¹. Also, in the assay with dGA (SEQ ID NO: 5), the “ka” value came to 783000 M⁻¹ s⁻¹ and the “Kd” value is 0.0003499 s⁻¹.

B3: S1D12: sheep-derived anti-tau core clone; scFv SEQ ID NO: 32, VH 443, VL 444 (protein)
scFv: QVQLQESGPSLVKPSQTLSLTCTVSGFSLNNNAVGWVRQAPGKVPESLVGCSSDGTCYYNSALKSRLDITRDTSKNQISLSLSSVTTDDAAVYYCTRGHYSIYGYDYLGTIDYWGPGLLVTVSSEGKSSGASGESKVDDQAVLTQPSSVSGSLGQRVSITCSGSSSNVGGGNSVGWYQHLPGSGLKTIIYDTNSRPSGVPDRFSGSRSGNTATLTINSLQAEDEGDYYCVTGDSTTHDDLVGSGTRLTVLG
modifications: S1D12 amino acid sequence
For the molecule B3, the “Tau proteins/fragments” value in assay [1] (Table 16, NS, S and M clones) is “hT40, 297-390 (dGA), 297-391 (dGAE), 186-350, 266-359, 337-368”. Also, the “Shortest region bound on hT40” value in assay [1] (setting [6]) is 337-355. Further, in assay [1] (setting [4]), the Epitope is 337-349. Besides, in assay [1], the “binding region on hT40” value is reported as 337-355 and the “Binding region hT40” value is on record as “(Binding region hT40 337-355)”. Further, the Epitope in assay [1] (setting [5]) is listed as 337-355. In assay [2], the “ka” value is 1.252e+06 M⁻¹ s⁻¹ and the “kd” value stood at 0.00015 s⁻¹. In addition, in the assay with dGA (SEQ ID NO: 5), the “ka” value was determined as 1.21e+06 M⁻¹ s⁻¹ and the “Kd” value was 0.000418 s⁻¹.
